Data set [1] addresses T1, FLAG-tagged GLI3, P10071.
T1 chain: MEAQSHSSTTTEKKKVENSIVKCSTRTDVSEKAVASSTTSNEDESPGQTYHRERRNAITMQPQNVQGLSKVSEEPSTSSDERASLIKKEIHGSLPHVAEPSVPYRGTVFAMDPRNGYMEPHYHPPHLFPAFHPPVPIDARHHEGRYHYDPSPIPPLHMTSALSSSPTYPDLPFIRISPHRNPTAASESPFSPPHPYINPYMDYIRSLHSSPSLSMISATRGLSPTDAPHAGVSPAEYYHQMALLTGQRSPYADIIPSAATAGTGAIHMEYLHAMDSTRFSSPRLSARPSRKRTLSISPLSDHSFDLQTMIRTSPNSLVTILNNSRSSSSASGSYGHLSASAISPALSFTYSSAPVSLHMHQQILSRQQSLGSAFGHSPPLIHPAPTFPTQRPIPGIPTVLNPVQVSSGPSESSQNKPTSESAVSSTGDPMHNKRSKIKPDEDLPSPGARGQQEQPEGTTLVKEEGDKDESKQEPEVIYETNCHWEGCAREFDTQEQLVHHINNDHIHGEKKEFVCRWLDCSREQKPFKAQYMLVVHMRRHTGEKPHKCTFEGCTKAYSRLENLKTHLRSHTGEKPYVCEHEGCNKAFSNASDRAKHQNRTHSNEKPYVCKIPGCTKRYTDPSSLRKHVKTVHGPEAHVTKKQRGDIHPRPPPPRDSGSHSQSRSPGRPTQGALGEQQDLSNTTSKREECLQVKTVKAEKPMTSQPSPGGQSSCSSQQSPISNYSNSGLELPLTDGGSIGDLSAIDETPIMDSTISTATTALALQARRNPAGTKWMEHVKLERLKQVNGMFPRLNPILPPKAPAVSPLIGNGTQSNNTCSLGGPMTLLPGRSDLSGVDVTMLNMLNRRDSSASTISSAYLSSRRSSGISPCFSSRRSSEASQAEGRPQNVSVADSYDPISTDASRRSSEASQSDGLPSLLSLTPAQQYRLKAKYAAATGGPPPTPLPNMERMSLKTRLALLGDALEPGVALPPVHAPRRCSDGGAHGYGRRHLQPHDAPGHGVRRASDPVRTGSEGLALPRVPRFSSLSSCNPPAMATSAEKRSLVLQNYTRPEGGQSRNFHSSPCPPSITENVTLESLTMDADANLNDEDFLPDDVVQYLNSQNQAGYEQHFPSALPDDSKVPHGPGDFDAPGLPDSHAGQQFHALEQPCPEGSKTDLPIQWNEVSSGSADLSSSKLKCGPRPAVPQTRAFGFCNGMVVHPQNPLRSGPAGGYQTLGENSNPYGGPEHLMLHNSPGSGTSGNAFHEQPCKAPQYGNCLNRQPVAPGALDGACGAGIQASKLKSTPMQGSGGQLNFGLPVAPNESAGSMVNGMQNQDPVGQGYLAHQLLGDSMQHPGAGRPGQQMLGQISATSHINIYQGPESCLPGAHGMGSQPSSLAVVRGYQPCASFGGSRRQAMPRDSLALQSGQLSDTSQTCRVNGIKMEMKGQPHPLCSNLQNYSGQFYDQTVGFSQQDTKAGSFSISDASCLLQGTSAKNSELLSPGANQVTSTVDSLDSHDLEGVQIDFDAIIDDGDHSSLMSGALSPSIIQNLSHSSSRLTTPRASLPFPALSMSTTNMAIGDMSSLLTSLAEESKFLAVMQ

Data set [2] addresses T2, His-tagged GLI1 fragment, amino acids 1-433.
T2 chain: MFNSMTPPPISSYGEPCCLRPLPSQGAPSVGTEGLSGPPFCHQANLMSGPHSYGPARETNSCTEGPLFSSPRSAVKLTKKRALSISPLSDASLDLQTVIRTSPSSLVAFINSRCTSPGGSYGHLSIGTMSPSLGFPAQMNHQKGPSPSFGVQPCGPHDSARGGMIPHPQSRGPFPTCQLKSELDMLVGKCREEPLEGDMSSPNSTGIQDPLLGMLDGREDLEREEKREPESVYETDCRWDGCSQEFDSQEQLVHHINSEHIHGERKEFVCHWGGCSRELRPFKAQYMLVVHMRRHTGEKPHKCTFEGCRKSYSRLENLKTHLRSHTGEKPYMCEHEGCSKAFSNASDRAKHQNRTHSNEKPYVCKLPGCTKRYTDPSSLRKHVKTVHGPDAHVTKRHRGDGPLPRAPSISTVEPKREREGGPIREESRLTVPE

Data set [3] deals with T3, FLAG-tagged GLI1 (full length).
T3 chain: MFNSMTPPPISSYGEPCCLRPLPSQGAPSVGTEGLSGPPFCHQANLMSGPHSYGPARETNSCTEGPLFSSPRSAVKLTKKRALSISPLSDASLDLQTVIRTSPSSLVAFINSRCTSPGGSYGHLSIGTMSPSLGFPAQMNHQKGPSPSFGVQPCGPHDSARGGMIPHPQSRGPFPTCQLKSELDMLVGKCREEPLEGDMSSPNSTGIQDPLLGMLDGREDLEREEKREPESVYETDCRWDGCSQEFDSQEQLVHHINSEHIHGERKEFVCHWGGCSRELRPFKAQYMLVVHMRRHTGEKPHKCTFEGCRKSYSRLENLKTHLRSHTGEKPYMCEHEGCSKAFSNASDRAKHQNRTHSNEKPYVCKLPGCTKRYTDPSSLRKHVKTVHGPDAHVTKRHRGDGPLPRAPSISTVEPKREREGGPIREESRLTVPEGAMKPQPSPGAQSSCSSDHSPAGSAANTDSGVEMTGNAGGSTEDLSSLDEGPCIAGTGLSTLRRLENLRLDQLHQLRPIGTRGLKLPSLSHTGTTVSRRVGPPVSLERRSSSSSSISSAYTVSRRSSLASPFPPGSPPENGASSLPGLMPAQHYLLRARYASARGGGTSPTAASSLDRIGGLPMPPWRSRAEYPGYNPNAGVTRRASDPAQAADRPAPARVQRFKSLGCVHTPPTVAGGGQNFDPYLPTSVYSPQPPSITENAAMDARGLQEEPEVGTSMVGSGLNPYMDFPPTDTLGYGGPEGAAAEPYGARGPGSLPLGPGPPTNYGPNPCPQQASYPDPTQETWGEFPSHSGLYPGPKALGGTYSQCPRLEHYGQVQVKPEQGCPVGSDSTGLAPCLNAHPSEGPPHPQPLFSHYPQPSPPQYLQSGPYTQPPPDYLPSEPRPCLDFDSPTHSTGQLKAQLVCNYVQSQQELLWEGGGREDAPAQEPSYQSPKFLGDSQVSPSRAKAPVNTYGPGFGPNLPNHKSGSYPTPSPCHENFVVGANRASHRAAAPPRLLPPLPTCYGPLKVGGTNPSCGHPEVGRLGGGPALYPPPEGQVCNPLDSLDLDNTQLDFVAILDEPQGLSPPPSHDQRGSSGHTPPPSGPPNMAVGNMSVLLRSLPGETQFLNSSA

B1: FLAG-tagged wild-type ULK3 (human serine/threonine kinase ULK3) (protein)
chain: MAGPGWGPPRLDGFILTERLGSGTYATVYKAYAKKDTREVVAIKCVAKKSLNKASVENLLTEIEILKGIRHPHIVQLKDFQWDSDNIYLIMEFCAGGDLSRFIHTRRILPEKVARVFMQQLASALQFLHERNISHLDLKPQNILLSSLEKPHLKLADFGFAQHMSPWDEKHVLRGSPLYMAPEMVCQRQYDARVDLWSMGVILYEALFGQPPFASRSFSELEEKIRSNRVIELPLRPLLSRDCRDLLQRLLERDPSRRISFQDFFAHPWVDLEHMPSGESLGRATALVVQAVKKDQEGDSAAALSLYCKALDFFVPALHYEVDAQRKEAIKAKVGQYVSRAEELKAIVSSSNQALLRQGTSARDLLREMARDKPRLLAALEVASAAMAKEEAAGGEQDALDLYQHSLGELLLLLAAEPPGRRRELLHTEVQNLMARAEYLKEQVKMRESRWEADTLDKEGLSESVRSSCTLQ
For B1, the “in vitro kinase assay, phosphorylation signal (32P autoradiography)” value in data set [1] was “GLI1 and GLI3 were also phosphorylated by ULK3, but with significantly lower intensity as compared to GLI2”; in data set [3], “GLI1 and GLI3 were also phosphorylated by ULK3, but with significantly lower intensity as compared to GLI2”. In addition, in data set [2], the “in vitro kinase assay, phosphorylation of a His-tagged GLI1 fragment” value was “Two of them-GLI1(1-433) and GLI1(726-1106)-were phosphorylated by ULK3”.

These data come from patent US20130040894A1, “INHIBITION OR ACTIVATION OF SERINE/THREONINE ULK3 KINASE ACTIVITY” (TALLINN UNIVERSITY OF TECHNOLOGY, priority 2009, published 2013).
